From IntAct's records for PubMed 31515488

B1: Cyclic AMP-responsive element-binding protein 3-like protein 1 (Homo sapiens), Q96BA8 (parent)
chain: MDAVLEPFPADRLFPGSSFLDLGDLNESDFLNNAHFPEHLDHFTENMEDFSNDLFSSFFDDPVLDEKSPLLDMELDSPTPGIQAEHSYSLSGDSAPQSPLVPIKMEDTTQDAEHGAWALGHKLCSIMVKQEQSPELPVDPLAAPSAMAAAAAMATTPLLGLSPLSRLPIPHQAPGEMTQLPVIKAEPLEVNQFLKVTPEDLVQMPPTPPSSHGSDSDGSQSPRSLPPSSPVRPMARSSTAISTSPLLTAPHKLQGTSGPLLLTEEEKRTLIAEGYPIPTKLPLTKAEEKALKRVRRKIKNKISAQESRRKKKEYVECLEKKVETFTSENNELWKKVETLENANRTLLQQLQKLQTLVTNKISRPYKMAATQTGTCLMVAALCFVLVLGSLVPCLPEFSSGSQTVKEDPLAADGVYTASQMPSRSLLFYDDGAGLWEDGRSTLLPMEPPDGWEINPGGPAEQRPRDHLQHDHLDSTHETTKYLSEAWPKDGGNGTSPDFSHSKEWFHDRDLGPNTTIKLS
B2: E3 ubiquitin-protein ligase RNF8 (Homo sapiens), O76064 (parent)
chain: MGEPGFFVTGDRAGGRSWCLRRVGMSAGWLLLEDGCEVTVGRGFGVTYQLVSKICPLMISRNHCVLKQNPEGQWTIMDNKSLNGVWLNRARLEPLRVYSIHQGDYIQLGVPLENKENAEYEYEVTEEDWETIYPCLSPKNDQMIEKNKELRTKRKFSLDELAGPGAEGPSNLKSKINKVSCESGQPVKSQGKGEVASTPSDNLDPKLTALEPSKTTGAPIYPGFPKVTEVHHEQKASNSSASQRSLQMFKVTMSRILRLKIQMQEKHEAVMNVKKQTQKGNSKKVVQMEQELQDLQSQLCAEQAQQQARVEQLEKTFQEEEQHLQGLEIAQGEKDLKQQLAQALQEHWALMEELNRSKKDFEAIIQAKNKELEQTKEEKEKMQAQKEEVLSHMNDVLENELQCIICSEYFIEAVTLNCAHSFCSYCINEWMKRKIECPICRKDIKSKTYSLVLDNCINKMVNNLSSEVKERRIVLIRERKAKRLF
B3: Grainyhead-like protein 2 homolog (Homo sapiens), Q6ISB3 (parent)
chain: MSQESDNNKRLVALVPMPSDPPFNTRRAYTSEDEAWKSYLENPLTAATKAMMSINGDEDSAAALGLLYDYYKVPRDKRLLSVSKASDSQEDQEKRNCLGTSEAQSNLSGGENRVQVLKTVPVNLSLNQDHLENSKREQYSISFPESSAIIPVSGITVVKAEDFTPVFMAPPVHYPRGDGEEQRVVIFEQTQYDVPSLATHSAYLKDDQRSTPDSTYSESFKDAATEKFRSASVGAEEYMYDQTSSGTFQYTLEATKSLRQKQGEGPMTYLNKGQFYAITLSETGDNKCFRHPISKVRSVVMVVFSEDKNRDEQLKYWKYWHSRQHTAKQRVLDIADYKESFNTIGNIEEIAYNAVSFTWDVNEEAKIFITVNCLSTDFSSQKGVKGLPLMIQIDTYSYNNRSNKPIHRAYCQIKVFCDKGAERKIRDEERKQNRKKGKGQASQTQCNSSSDGKLAAIPLQKKSDITYFKTMPDLHSQPVLFIPDVHFANLQRTGQVYYNTDDEREGGSVLVKRMFRPMEEEFGPVPSKQMKEEGTKRVLLYVRKETDDVFDALMLKSPTVKGLMEAISEKYGLPVEKIAKLYKKSKKGILVNMDDNIIEHYSNEDTFILNMESMVEGFKVTLMEI
partner: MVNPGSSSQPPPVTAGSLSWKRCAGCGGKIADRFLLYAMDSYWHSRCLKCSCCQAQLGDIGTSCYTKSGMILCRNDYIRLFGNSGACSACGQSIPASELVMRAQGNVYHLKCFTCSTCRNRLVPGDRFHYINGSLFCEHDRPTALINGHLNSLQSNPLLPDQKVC

Legend:
[1] = variants of: B1; details: with gpr25_human GPR25, O00155
[2] = variants of: B1; details: with tm147_human TMEM147, Q9BVK8
[3] = variants of: B2; details: with sept3_human SEPTIN3, Q9UH03
wasl_human WASL, O00401 = variants of: B2; details: with wasl_human WASL
lmo4_human LMO4, P61968 = variants of: B3; details: with lmo4_human LMO4, P61968

Sequence of gpr25_human GPR25, O00155 (O00155 whole entry): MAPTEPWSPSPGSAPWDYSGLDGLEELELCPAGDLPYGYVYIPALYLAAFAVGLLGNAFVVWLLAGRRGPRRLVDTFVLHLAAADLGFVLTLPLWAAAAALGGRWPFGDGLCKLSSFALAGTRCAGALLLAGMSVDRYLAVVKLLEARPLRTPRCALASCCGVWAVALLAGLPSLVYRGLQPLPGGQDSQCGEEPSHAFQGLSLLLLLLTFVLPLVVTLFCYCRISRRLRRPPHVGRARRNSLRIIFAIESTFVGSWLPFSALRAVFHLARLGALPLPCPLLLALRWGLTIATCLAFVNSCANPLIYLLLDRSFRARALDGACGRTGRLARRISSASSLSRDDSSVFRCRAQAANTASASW
Sequence of tm147_human TMEM147, Q9BVK8 (Q9BVK8 whole entry): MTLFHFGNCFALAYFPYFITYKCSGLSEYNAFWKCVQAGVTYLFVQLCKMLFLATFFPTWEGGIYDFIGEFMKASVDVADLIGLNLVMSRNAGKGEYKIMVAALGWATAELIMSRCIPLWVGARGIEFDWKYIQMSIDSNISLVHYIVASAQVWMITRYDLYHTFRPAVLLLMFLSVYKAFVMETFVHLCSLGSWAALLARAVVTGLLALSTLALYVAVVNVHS
Sequence of wasl_human WASL, O00401 (O00401 whole entry): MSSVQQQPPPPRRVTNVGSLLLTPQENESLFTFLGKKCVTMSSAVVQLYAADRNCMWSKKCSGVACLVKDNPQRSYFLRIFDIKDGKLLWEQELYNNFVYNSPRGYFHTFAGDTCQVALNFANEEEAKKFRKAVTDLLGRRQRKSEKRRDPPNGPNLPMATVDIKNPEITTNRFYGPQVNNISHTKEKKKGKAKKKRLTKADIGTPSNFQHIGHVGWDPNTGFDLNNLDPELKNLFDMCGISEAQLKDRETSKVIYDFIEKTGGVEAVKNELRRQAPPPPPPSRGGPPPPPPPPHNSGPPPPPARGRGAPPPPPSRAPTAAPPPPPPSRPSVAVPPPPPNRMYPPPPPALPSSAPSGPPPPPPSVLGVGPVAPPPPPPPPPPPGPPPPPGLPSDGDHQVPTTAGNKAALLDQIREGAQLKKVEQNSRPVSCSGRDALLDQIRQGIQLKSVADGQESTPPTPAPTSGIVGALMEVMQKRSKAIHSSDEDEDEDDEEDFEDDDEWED
Sequence of sept3_human SEPTIN3, Q9UH03 (Q9UH03 whole entry): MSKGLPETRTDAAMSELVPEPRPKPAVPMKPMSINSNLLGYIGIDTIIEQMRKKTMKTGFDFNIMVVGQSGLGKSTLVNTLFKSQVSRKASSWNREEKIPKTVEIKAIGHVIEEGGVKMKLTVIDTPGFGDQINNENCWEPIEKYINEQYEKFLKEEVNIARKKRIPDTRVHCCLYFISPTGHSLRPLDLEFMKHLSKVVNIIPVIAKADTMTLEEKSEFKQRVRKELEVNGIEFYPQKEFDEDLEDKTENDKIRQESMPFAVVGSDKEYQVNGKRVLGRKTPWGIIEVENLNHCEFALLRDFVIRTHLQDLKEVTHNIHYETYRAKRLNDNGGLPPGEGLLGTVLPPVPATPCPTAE

Variant	effect of a mutation on the interaction [1]	effect of a mutation on the interaction [2]	effect of a mutation on the interaction [3]	effect of a mutation on the interaction (wasl_human WASL, O00401)	effect of a mutation on the interaction (lmo4_human LMO4, P61968)
MDAVLEPFPADRLFPGSSFLDLGDLNESDFLNNAHFPEHLDHFTENMEDFSNDLFSSFFDDPVLDEKSPLLDMELDSPTPGIQAEHSYSLSGDSAPQSPLVPIKMEDTTQDAEHGAWALGHKLCSIMVKQEQSPELPVDPLAAPSAMAAAATMATTPLLGLSPLSRLPIPHQAPGEMTQLPVIKAEPLEVNQFLKVTPEDLVQMPPTPPSSHGSDSDGSQSPRSLPPSSPVRPMARSSTAISTSPLLTAPHKLQGTSGPLLLTEEEKRTLIAEGYPIPTKLPLTKAEEKALKRVRRKIKNKISAQESRRKKKEYVECLEKKVETFTSENNELWKKVETLENANRTLLQQLQKLQTLVTNKISRPYKMAATQTGTCLMVAALCFVLVLGSLVPCLPEFSSGSQTVKEDPLAADGVYTASQMPSRSLLFYDDGAGLWEDGRSTLLPMEPPDGWEINPGGPAEQRPRDHLQHDHLDSTHETTKYLSEAWPKDGGNGTSPDFSHSKEWFHDRDLGPNTTIKLS [A152T]	with no effect	with no effect			
K9R					with no effect

The remaining lines, values ahead:

effect of a mutation on the interaction [1]	effect of a mutation on the interaction [2]	effect of a mutation on the interaction [3]	effect of a mutation on the interaction (wasl_human WASL, O00401)	effect of a mutation on the interaction (lmo4_human LMO4, P61968)	Variant
with no effect	with no effect				MDAVLEPFPADRLFPGSSFLDLGDLNESDFLNNAHFPEHLDHFTENMEDFSNDLFSSFFDDPVLDEKSPLLDMELDSPTPGIQAEHSYSLSGDSAPQSPLVPIKMEDTTQDAEHGAWALGHKLCSIMVKQEQSPELPVDPLAAPSAMAAAAAMATTPLLGLSPLSRLPIPHQAPGEMTQLPVIKAEPLEVNQFLKVTPEDLVQMPPTPPSSHGSDSDGSQSPRSLPPSSPVRPMARSSTAISTSPLLTAPHKLQGTSGPLLLTEEEKRTLIAEGYPIPTKLPLTKAEEKALKRVRRKIKNKISAQESRRKKKEYVECLEKKVETFTSENNELWKKVETLENANRTLLQQLQKLQTLVTNKISRPYKMAATQTGTCLMVAALCFVLVLGSLVPCLPEFSSGSQTVKEDPLAADGVYTASQMPSRSLLFYDDGAGLWEDGRSTLLPMEPPDGWEINPGGPAEQRPRDHLQHDHLDSTHETTKYLSEAWPKDGGNGTSPDFSHSKEWFHDRDLGPNTTSKLS [I516S]
		with no effect	with no effect		MGEPGFFVTGDRAGGRSWCLRRVGMSAGWLLLEDGCEVTVGRGFGVTYQLVSKICPLMISRNHCVLKQNPEGQWTIMDNKSLNGVWLNRARLEPLRVYSIHQGDYIQLGVPLENKENAEYEYEVTEEDWETIYPCLSPKNDQMIEKNKELRTKRKFSLDELAGPGAEGPSNLKSKINKVSCESGQPVKSQGKGEVASTPSDNLDPKLTALEPSKTTGAPIYPGFPKVTEVHHEQKASNSSASQRSLQMFKVTMSRILRLKIQMQEKHEAVMNVKKQTQKGNSKKVVQMEQELQDLQSQLCAEQAQQQARLEQLEKTFQEEEQHLQGLEIAQGEKDLKQQLAQALQEHWALMEELNRSKKDFEAIIQAKNKELEQTKEEKEKMQAQKEEVLSHMNDVLENELQCIICSEYFIEAVTLNCAHSFCSYCINEWMKRKIECPICRKDIKSKTYSLVLDNCINKMVNNLSSEVKERRIVLIRERKAKRLF [V310L]
